{
  "source": "patent US20190314417A1",
  "about": "“IMMUNOSUPPRESSIVE MESENCHYMAL CELLS AND METHODS FOR FORMING SAME” (The Trustees of Columbia University In The City of New York, priority 2016, published 2019)",
  "type_in_all_cases": "cell-based, human",
  "key": {"GLUT1": {"tested_on": "GLUT1", "assay": "Hypoxia mimetic titration: GLUT1 in MSCs", "conditions": "different concentrations, FIG. 24", "description": "Studies were carried out to determine the effect of hypoxia mimicking agents CoCl2 and DFO on MSCs (FIG. 24)."}, "[1]": {"tested_on": "CD4+ and CD8+ T-cell division", "assay": "Lactic acid titration: T-cell division in response to Concanavalin A", "conditions": "ConA 5 μg/mL, Day 3", "description": "PBMCs were thawed, as previously described, and stained in HEPES buffered saline at 37° C. for 30 minutes with pHrodo® Red AM (Thermo Fisher) as per manufacturer's instructions (1000× dilution of dye). […] Cells were resuspended in these new media and incubated at 37° C. for 30 minutes. Immediately prior to each flow cytometry reading, each sample was diluted 1:9 with BD Stain Buffer and mixed well. This neutralized external pH and diluted media components without permitting time for intracellular lactate to be exported. […] Cells were plated in 96-well U-bottom plates at 200 000 cells per well. ConA was added to be 5 μg/mL, and PBMCs were analyzed by flow cytometry on Day 3."}, "T-cells": {"tested_on": "T-cells", "assay": "Lactic acid titration: intracellular pH and scatter of T-cells (pHrodo Red AM)", "conditions": "fresh complete AIM-V media, 30 minutes"}, "IDO [2]": {"tested_on": "IDO", "assay": "IFN-γ titration: IDO expression in MSCs by flow cytometry", "conditions": "48 hours of exposure", "description": "(§1) Titration studies were carried out to determine whether IFN-γ at different concentrations or for different time periods had differential effects on MSC expression of IDO and/or PD-L1 (FIGS. 22 & 23). […] Thus, the IFN-γ dose could be used in a range of 0.1 ng/mL to 100 ng/mL for future animal and human studies, while still reproducing the same beneficial phenotype, with the lower end of that range more likely to mimic physiologic conditions in humans. […] Therefore, priming of MSCs may be carried out for less than 48 hours to achieve biological effects."}, "IDO [3]": {"tested_on": "IDO", "assay": "Onset kinetics of IDO expression in MSCs exposed to IFN-γ", "conditions": "10 ng/mL IFN-γ", "description": "as §1"}, "PD-L1": {"tested_on": "PD-L1", "assay": "Onset kinetics of PD-L1 expression in MSCs exposed to IFN-γ", "conditions": "10 ng/mL IFN-γ", "description": "as §1"}},
  "note": "Where a name gives a salt, the structure may show the parent alone.",
  "data": [
    {"molecule": "[Cl][Co][Cl]", "note": "[CoCl2, cobalt chloride]", "values": [
      {"measurement": "GLUT1 upregulation in MSCs", "setting": "GLUT1", "value": "able to upregulate GLUT 1"}
    ]},
    {"molecule": "CC(=O)N(O)CCCCCNC(=O)CCC(=O)N(O)CCCCCNC(=O)CCC(=O)N(O)CCCCCN", "note": "[DFO, deferoxamine mesylate/desferrioxamine]", "values": [
      {"measurement": "GLUT1 upregulation in MSCs", "setting": "GLUT1", "value": "able to upregulate GLUT 1"}
    ]},
    {"molecule": "C[C@H](O)C(=O)O", "note": "[lactic acid, L-lactic acid]", "values": [
      {"measurement": "T-cell division at lactate 15 mM", "setting": "[1]; lactate concentration of 15 mM", "value": "almost completely eliminated"},
      {"measurement": "T-cell division, % of the maximum rate", "setting": "[1]; lactic acid concentration not given", "value": "30-45%"},
      {"measurement": "extracellular lactic acid level at which drop in T-cell pHi started to become pronounced", "setting": "T-cells", "value": 15, "unit": "mM"}
    ]},
    {"molecule": "IFN-γ: pro-inflammatory cytokine (Peprotech) used to prime MSCs (protein, UniProt P01579 24-161, looked up) Interferon gamma: QDPYVKEAENLKKYFNAGHSDVADNGTLFLGILKNWKEESDRKIMQSQIVSFYFKLFKNFKDDQSIQKSVETIKEDMNVKFFNSNKKKRDDFEKLTNYSVTDLNVQRKAIHELIQVMAELSPAAKTGKRKRSQMLFRG", "values": [
      {"measurement": "IDO induction at 0.1 ng/mL", "setting": "IDO [2]; 0.1 ng/mL", "value": "significant induction"},
      {"measurement": "IFN-γ concentration required for maximum IDO induction", "setting": "IDO [2]", "value": "at least 1 ng/mL"},
      {"measurement": "exposure time after which IDO is already upregulated", "setting": "IDO [3]", "value": 6, "unit": "h"},
      {"measurement": "exposure time required for maximum IDO expression", "setting": "IDO [3]", "value": 48, "unit": "h"},
      {"measurement": "exposure time after which PD-L1 is already upregulated", "setting": "PD-L1", "value": 6, "unit": "h"},
      {"measurement": "exposure time required for maximum PD-L1 expression", "setting": "PD-L1", "value": 48, "unit": "h"}
    ]}
  ]
}
